The source of these data is patent publication US20210261648A1 (published 2021).

Assay [1] has as its target T1, FcγRIIa type H extracellular domain with C-terminal His tag (human, UniProt P12318 34-217).
T1 construct: extracellular domain; also called FcγRIIaH; FcgRIIaH; not shown: His tag attached to the C terminus
T1 sequence (looked up): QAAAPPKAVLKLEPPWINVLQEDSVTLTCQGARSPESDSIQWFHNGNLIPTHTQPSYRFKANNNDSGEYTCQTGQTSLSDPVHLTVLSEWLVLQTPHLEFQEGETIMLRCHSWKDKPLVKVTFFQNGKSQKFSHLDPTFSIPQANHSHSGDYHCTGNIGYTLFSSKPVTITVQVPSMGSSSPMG
Nature of the assay: SPR binding amount, relative to IL6R-BF648/IL6R-L. A general note: SPR reads the build-up and loss of mass on a sensor chip optically.

In assay [2] the target is T2, FcγRIa extracellular domain with C-terminal His tag (human, UniProt P12314 16-292).
T2 construct: also called FcgRIa; not shown: His tag attached to the C terminus
T2 sequence (P12314 16-292): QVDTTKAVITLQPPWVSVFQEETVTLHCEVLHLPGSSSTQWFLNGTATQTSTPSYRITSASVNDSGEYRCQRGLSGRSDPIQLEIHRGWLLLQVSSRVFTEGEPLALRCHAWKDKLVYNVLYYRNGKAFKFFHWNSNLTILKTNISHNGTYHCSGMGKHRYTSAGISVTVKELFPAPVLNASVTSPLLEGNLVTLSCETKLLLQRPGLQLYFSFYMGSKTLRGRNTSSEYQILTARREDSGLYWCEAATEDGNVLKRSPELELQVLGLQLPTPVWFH
The assay can be described thus: SPR binding amount, relative to IL6R-BF648/IL6R-L.

Assay [3] has as its target T3, FcγRIIb extracellular domain with C-terminal His tag (human, UniProt P31994 43-217).
T3 construct: extracellular domain; For crystallography it was expressed with kifunensine and trimmed with Endo F1; also called FcgRIIb; FcγRIIb extracellular region; not shown: His tag attached to the C terminus
T3 sequence (looked up): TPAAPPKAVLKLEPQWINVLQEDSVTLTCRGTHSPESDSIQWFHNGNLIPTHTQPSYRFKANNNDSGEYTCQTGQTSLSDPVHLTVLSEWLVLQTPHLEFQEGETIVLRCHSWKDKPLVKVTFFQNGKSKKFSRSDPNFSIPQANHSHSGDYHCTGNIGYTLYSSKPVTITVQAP
Nature of the assay: SPR binding amount, relative to IL6R-BF648/IL6R-L.

In assay [4] the target is T4, FcγRIIa type R (human, UniProt P12318 34-217).
T4 chain: T1 sequence (looked up) with H134R
Nature of the assay: SPR (Biacore); parent = IL6R-B3/IL6R-L.

Assay [5] has as its target T5, FcγRIIb (human, UniProt P31994 43-217).
T5 construct: extracellular domain; also called FcgRIIb; CD32B
T5 sequence (looked up): T3 sequence (looked up)
The assay can be described thus: SPR (Biacore); parent = IL6R-B3/IL6R-L.

A further assay has as its target T6, FcγRIIa type H (human, UniProt P12318 34-217).
T6 construct: extracellular domain; also called FcγRIIaH; FcgRIIaH
T6 sequence (looked up): T1 sequence (looked up)
The assay can be described thus: SPR (Biacore), captured antibody, soluble FcγR.

Assay [6] has as its target T4, FcγRIIa type R. Nature of the assay: SPR (Biacore), captured antibody, soluble FcγR.
The target of assay [7] is T5, FcγRIIb. The assay can be described thus: SPR (Biacore), captured antibody, soluble FcγR.
The target in a further assay is T7, FcγRIa (human, UniProt P12314 16-292).
T7 construct: Whole entry named; also called FcgRIa; CD64A
T7 sequence (P12314 16-292): as the sequence (P12314 16-292) above
Nature of the assay: SPR (Biacore), captured antibody, soluble FcγR.

Positions count from the first letter of the chain named.

B1: IL6R-2B171/IL6R-L (antibody, human IgG1, kappa)
heavy: QVQLQESGPGLVKPSETLSLTCAVSGHSISHDHAWSWVRQPPGEGLEWIGFISYSGITNYNPSLQGRVTISRDNSKNTLYLQMNSLRAEDTAVYYCARSLARTTAMDYWGEGTLVTVSSASTKGPSVFPLAPSSKSTSGGTAALGCLVKDYFPEPVTVSWNSGALTSGVHTFPAVLQSSGLYSLSSVVTVPSSSLGTQTYICNVNHKPSNTKVDKKVEPKSCDKTHTCPPCPAPELLGGDSVFLFPPKPKDTLMISRTPEVTCVVVDVSHEDPEVKFNWYVDGVEVHNAKTKPREEQYNSTYRVVSVLTVLHQDWLNGKEYKCKLSNKALPAPIEKTISKAKGQPREPQVYTLPPSRDELTKNQVSLTCLVKGFYPSDIAVEWESNGQPENNYKTTPPVLDSDGSFFLYSKLTVDKSRWQQGNVFSCSVMHEALHNHYTQESLSLSP
light: not shown
notes: Alterations introduced into IL6R-B3
For B1, the “relative binding activity (IL6R-BF648/IL6R-L = 100)” value (from here on “relative binding activity”) in assay [1] came out at 115; in assay [2] it was 116; in assay [3] it was 113.

B2: IL6R-2B172/IL6R-L (antibody, human IgG1, kappa)
heavy: B1 heavy with L325M
light: not shown
notes: as for B1
Regarding B2, the “relative binding activity” value in [1] was 179; in [2], 140; in assay [3], 132.

B3: IL6R-BP533/IL6R-L (antibody, human IgG1, kappa)
heavy: B1 heavy with E235D, G239D, V266I, S269G, H270E, P273G, Y298D, L325V, A332R, P398L
light: not shown
notes: Alterations in EU numbering, introduced into IL6R-B3
Usually Kd stands for the concentration at which binding is half-saturated. In the case of B3, in the assay with FcγRIIa type R [4], the “KD(IIaR) of the parent polypeptide/KD(IIaR) of the altered polypeptide” value (“KD(IIaR)” below) was 9.2 fold. Moreover, the “KD(IIb) of the parent polypeptide/KD(IIb) of the altered polypeptide” value (from here on “KD(IIb)”) with FcγRIIb [5] was determined as 756 fold. The Kd worked out at 2600 nM with FcγRIIa type H, 120 nM in the assay with FcγRIIa type R [6], 4.1 nM with FcγRIIb [7] and 7.7 nM with FcγRIa.

B4: IL6R-BP511/IL6R-L (antibody, human IgG1, kappa)
heavy: B1 heavy with G239D, V266I, S269A, H270E, P273G, E274P, Y298D, L325V, A332R
light: not shown
notes: as for B3
Consider B4, for which the “KD(IIaR)” value with FcγRIIa type R [4] amounted to 6.3 fold. For the same molecule, in the assay with FcγRIIb [5], the “KD(IIb)” value is 891 fold. In addition, the dissociation constant (Kd) in the assay with FcγRIIa type H was 4300 nM; with FcγRIIa type R [6], 180 nM; in the assay with FcγRIIb [7], 3.5 nM; with FcγRIa it was 6 nM.

B5: IL6R-BP536/IL6R-L (antibody, human IgG1, kappa)
heavy: B1 heavy with E235D, G239D, V266I, H270E, P273G, Y298D, L325V, A329G, A332R, P398M
light: not shown
notes: as for B3
Take B5: in the assay with FcγRIIa type R [4], the “KD(IIaR)” value came to 13.9 fold. The “KD(IIb)” value with FcγRIIb [5] worked out at 1040 fold. Moreover, the dissociation constant Kd stood at 1300 nM with FcγRIIa type H, 79 nM in the assay with FcγRIIa type R [6], 3 nM in the assay with FcγRIIb [7] and 8.9 nM with FcγRIa.

B6: IL6R-BP538/IL6R-L (antibody, human IgG1, kappa)
heavy: B1 heavy with G239D, V266I, H270E, P273G, L325V, A332R
light: not shown
notes: as for B3
Turning to B6, the “KD(IIaR)” value with FcγRIIa type R [4] was found to be 5.4 fold. Moreover, the “KD(IIb)” value in the assay with FcγRIIb [5] was 587 fold. For the same molecule, the Kd in the assay with FcγRIIa type H is 3000 nM; with FcγRIIa type R [6] it was 200 nM; with FcγRIIb [7], 5.3 nM; with FcγRIa it was 55 nM.

B7: IL6R-BP539/IL6R-L (antibody, human IgG1, kappa)
heavy: B1 heavy with G239D, V266I, S269G, H270E, P273G, E274P, Y298D, L325V, A332R
light: not shown
notes: as for B3
For the molecule B7, in the assay with FcγRIIa type R [4], the “KD(IIaR)” value worked out at 3.4 fold. The “KD(IIb)” value in the assay with FcγRIIb [5] turned out to be 369 fold. Moreover, the Kd with FcγRIIa type H stood at 5600 nM; with FcγRIIa type R [6], 330 nM; in the assay with FcγRIIb [7], 8.4 nM; with FcγRIa, 64 nM.

B8: IL6R-2B128/IL6R-L (antibody, human IgG1, kappa)
heavy: B1 heavy with Y298D, L325V
light: not shown
notes: as for B1
As for B8, the “relative binding activity” value in assay [1] was 37; in assay [2] it was 95; in assay [3], 103.

B9: IL6R-BP100/IL6R-L (antibody, human IgG1, kappa)
heavy: B1 heavy with S269A, L325V
light: not shown
notes: as for B1
As for B9, the “relative binding activity” value in assay [1] was 128; in [2] it was 121; in [3] it was 110.

B10: IL6R-BP078/IL6R-L (antibody, human IgG1, kappa)
heavy: B1 heavy with L325V, A332M
light: not shown
notes: as for B1
As for B10, the “relative binding activity” value in assay [1] came to 89; in assay [2], 106; in assay [3], 105.
